# B1: LILRB2, c-terminally biotinylated (BPS Bioscience #100335) (receptor, UniProt Q8N423 22-458, looked up)
# chain: QTGTIPKPTLWAEPDSVITQGSPVTLSCQGSLEAQEYRLYREKKSASWITRIRPELVKNGQFHIPSITWEHTGRYGCQYYSRARWSELSDPLVLVMTGAYPKPTLSAQPSPVVTSGGRVTLQCESQVAFGGFILCKEGEDEHPQCLNSQPHARGSSRAIFSVGPVSPNRRWSHRCYGYDLNSPYVWSSPSDLLELLVPGVSKKPSLSVQPGPVMAPGESLTLQCVSDVGYDRFVLYKEGERDLRQLPGRQPQAGLSQANFTLGPVSRSYGGQYRCYGAHNLSSECSAPSDPLDILITGQIRGTPFISVQPGPTVASGENVTLLCQSWRQFHTFLLTKAGAADAPLRLRSIHEYPKYQAEFPMSPVTSAHAGTYRCYGSLNSDPYLLSHPSEPLELVVSGPSMGSSPPPTGPISTPGPEDQPLTPTGSDPQSGLGRHL
# modifications: C-terminal biotin
# notes: Bought reagent immobilised on streptavidin plates
# Biological target: T1, HLA-B57(A46E/V97R).β2m IgG4 Fc fusion protein dimer associated with β2m (human; homo sapiens)
# T1 construct: also called iosH2; losH2
# Test: ELISA, biotinylated LILRB2 on streptavidin plate
# Source text: The inventors went on to dissect the immunological properties most relevant to tumor immunity associated with HLA-B57^{(A46E/V97R)} formats, all lacking association with a peptide epitope associated with the peptide-binding groove of the HLA class I domain of the fusion protein. The affinity of interaction of LILRB2 with wildtype HLA-B57 fusion protein (dimers) lacking β2m, HLA-B57^{(A46E/V97R)} fusion protein (dimers) lacking β2m, and HLA-B57^{(A46E/V97R)} fusion protein dimers still bound to β2m was measured using the enzyme-linked immunosorbent assay (ELISA) method. Flat bottom Pierce™ Streptavidin coated high binding capacity 96 well plates (Pierce #15500) were coated with 50 μl of c-terminally biotinylated antigen molecules (LILRB2, BPS Bioscience #100335) immobilized at a final concentration of 5 μg/ml in PBS buffer. PBS and IgG isotype were used as negative controls. A serial dilution of HLA-B57, or HLA-B57^{(A46E/V97R)} lacking β2m, and HLA-B57^{(A46E/V97R)}.β2m (eight concentration points: 10, 2.5, 1, 0.25, 0.1, 0.025, 0.01, 0.0025 μg/ml) was applied (50 μl) in duplicates. An APC conjugated goat anti-human IgG antibody (Jackson Immuno Research #109-135-098) with 1:100 dilution in TBS (50 μl) was used for detection. Finally, 50 μl TBS in each well was added and a fluorescence scan was performed with APC excitation and emission wavelengths of 650 nm & 660 nm, respectively. […]
binder,measurement,value
B1,binding result,binds

# Source: patent US20250163129A1 (IMMUNOS THERAPEUTICS, published 2025)
